Series [1] concerns the molecule itself. In words: crystal structure; Pikp-HMA alone; 0.1 M MIB buffer pH 5.0, 25% PEG 1500; dimer in the crystal.
Series [2] deals with AVR-PikD with non-cleavable C-terminal 6xHis tag (pOPINE) (Magnaporthe oryzae, UniProt C4B8B8 22-113). The series is described as follows: SPR; Biacore T200, 25°C, multi-cycle kinetics; […]; 50 mM HEPES pH 7.5, 150 mM NaCl, 0.1% Tween 20; […]. Particulars: both partners purified.

One may read the stoichiometry N as a count of units in the complex or per binding partner. One may read the Kd as a measure of binding affinity in units of concentration.

B1: Pikp-HMA domain made in Sf9 cells for crystallisation (domain or fragment, rice (Oryza sativa), UniProt E9KPB5 186-258, looked up)
chain: GLKQKIVIKVAMEGNNCRSKAMALVASTGGVDSVALVGDLRDKIEVVGYGIDPIKLISALRKKVGDAELLQVS
notes: also called Pikp1-HMA; not shown: 6xHis+SUMO, N-terminal, cleaved
For the molecule B1, the “stoichiometry N” value in series [1] came out at 2.

B2: Pikp-HMA domain (HMA integrated domain of the rice NLR Pikp-1) (domain or fragment)
chain: GLKQKIVIKVAMEGNNCRSKAMALVASTGGVDSVALVGDLRDKIEVVGYGIDPIKLISALRKKVGDAELLQVS
notes: also called Pikp1-HMA; Pikp-1 HMA; not shown: 6xHis+SUMO, N-terminal, cleaved
In series [2], B2 yielded a Kd of 31 ± 2 nM.

(Values after paper PMC4547098 (eLife, 2015).)
